Source: patent US8129345B2, “MUC1-IκB kinase complexes and their activities” (Dana-Farber Cancer Institute, Inc., priority 2006, dated 2012)

How the values were obtained:
[1] = target: T1, IKKβ (Homo sapiens, UniProt O14920); test: In vitro GST pull-down binding to IKKβ; settings: GST pull-down with purified proteins, immunoblot
T1 sequence (O14920 1-756): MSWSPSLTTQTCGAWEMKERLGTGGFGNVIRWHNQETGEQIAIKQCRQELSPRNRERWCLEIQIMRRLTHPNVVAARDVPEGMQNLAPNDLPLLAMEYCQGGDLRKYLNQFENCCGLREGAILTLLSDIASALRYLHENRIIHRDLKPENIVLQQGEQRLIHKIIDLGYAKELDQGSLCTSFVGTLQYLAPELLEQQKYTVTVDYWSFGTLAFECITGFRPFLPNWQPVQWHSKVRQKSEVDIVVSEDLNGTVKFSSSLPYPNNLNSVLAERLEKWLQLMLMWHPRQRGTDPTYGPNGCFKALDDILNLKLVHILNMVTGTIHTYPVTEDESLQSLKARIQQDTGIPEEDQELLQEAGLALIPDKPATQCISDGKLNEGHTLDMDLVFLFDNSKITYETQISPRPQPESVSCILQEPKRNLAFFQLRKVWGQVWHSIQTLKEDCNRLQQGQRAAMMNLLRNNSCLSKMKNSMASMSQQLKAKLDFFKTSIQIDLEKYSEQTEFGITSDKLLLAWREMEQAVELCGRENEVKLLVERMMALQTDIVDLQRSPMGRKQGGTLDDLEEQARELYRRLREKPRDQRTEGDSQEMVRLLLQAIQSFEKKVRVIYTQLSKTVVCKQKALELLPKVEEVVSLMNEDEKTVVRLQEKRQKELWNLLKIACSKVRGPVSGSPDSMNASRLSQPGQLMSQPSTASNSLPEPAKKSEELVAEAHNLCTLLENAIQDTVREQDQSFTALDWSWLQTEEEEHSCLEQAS
Procedure: FIG. 4B is a pair of photographs of immunoblots. Recombinantly expressed, purified GST- and GST-IKKβ proteins bound to glutathione-agarose beads were incubated with purified MUC1-CD protein. The precipitates were immunoblotted (IB) with anti-MUC1-C antibodies. Input of the GST and GST-IKKβ proteins was assessed by Coomassie blue staining. The molecular weights of proteins (as indicated on the left of the photographs) are expressed as kilodaltons (kDa).
FIG. 4C (top panel) is a schematic diagram of the amino acid sequence of (i) the MUC1-cytoplasmic domain (MUC1-CD) [amino acids 1-72; SEQ ID NO:2]; (ii) the MUC1-CD fragment [amino acids 1-45; SEQ ID NO:3]; and (iii) the MUC-CD fragment [amino acids 46-72; SEQ ID NO:4]. FIG. 4C (bottom panel) is a photograph of an immunoblot and a photograph of a Coomassie blue-stained electrophoretic gel. GST- and the indicated GST-MUC1-CD fusion proteins bound to glutathione beads were incubated with purified IKKβ. The precipitates were immunoblotted with anti-IKKβ. Input of the GST and GST-MUC1-CD fusion proteins was assessed by Coomassie blue staining. The molecular weights of proteins (as indicated on the left of the photographs) are expressed as kilodaltons (kDa).
FIG. 11A is a pair of photographs of an immunoblot and Coomassie-blue stained gel. GST and the indicated GST-MUC1-CD fusion proteins (MUC1-CD and MUC1-CD(mSRM)) bound to glutathione beads were incubated with IKKβ. The precipitates were immunoblotted (IB) with an anti-IKKβ antibody. Commassie blue staining of the gel was performed to confirm that equal amounts of GST- and GST-MUC1-CD proteins were used in the experiment. The molecular weights of proteins (as indicated on the left of the photographs) are expressed as kilodaltons (kDa).
(§1) In vitro binding assays. Purified GST-MUC1-CD (glutathione s-transferase fused to the MUC1-CD polypeptide) was cleaved with thrombin to remove the GST moiety. […] Adsorbates to glutathione-conjugated beads were analyzed by immunoblotting.

[2] = target: IKKβ-IKKγ complexes (Homo sapiens, UniProt O14920+Q9Y6K9); test: In vitro association of IKKβ with GST-IKKγ in absence and presence of MUC1-CD proteins; assay type: binding; settings: purified IKKβ and GST-IKKγ, with or without added MUC1 protein
IKKβ-IKKγ complexes, sequence (Q9Y6K9 whole entry, one chain of several): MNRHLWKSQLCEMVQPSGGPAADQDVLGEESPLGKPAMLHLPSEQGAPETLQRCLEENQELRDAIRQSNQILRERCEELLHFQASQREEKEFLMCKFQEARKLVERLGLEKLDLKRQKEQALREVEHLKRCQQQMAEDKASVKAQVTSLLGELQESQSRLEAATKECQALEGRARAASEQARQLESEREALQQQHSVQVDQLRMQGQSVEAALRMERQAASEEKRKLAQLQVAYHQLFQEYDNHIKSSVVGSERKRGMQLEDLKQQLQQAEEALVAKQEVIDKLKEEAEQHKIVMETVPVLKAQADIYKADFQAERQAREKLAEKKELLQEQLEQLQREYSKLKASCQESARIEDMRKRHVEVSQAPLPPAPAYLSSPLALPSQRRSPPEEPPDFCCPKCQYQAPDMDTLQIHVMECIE
Procedure: FIG. 7C is a series of photographs of immunoblots. GST- or GST-IKKγ bound to glutathione beads was incubated with IKKβ in the absence and presence of MUC1-CD protein. The precipitates were immunoblotted (IB) with anti-IKKβ (upper panel). Input amounts of the various proteins were assessed by immunoblotting with the indicated antibodies (lower 3 panels). The molecular weights of proteins (as indicated on the left of the photographs) are expressed as kilodaltons (kDa).
FIG. 12 is a series of photographs of immunoblots. GST, and GST-IKKγ fusion proteins bound to glutathione beads were incubated with MUC1-CD, MUC1-CD(mSRM), or IKKβ proteins as indicated. The GST-pull down precipitates were immunoblotted (IB) with antibodies specific for IKKγ (top panel), IKKβ (middle panel), or MUC1 (bottom panel) as indicated. The molecular weights of proteins (as indicated on the left of the photographs) are expressed as kilodaltons (kDa).
as §1

## MUC1-CD: 72 amino acid cytoplasmic domain of human MUC1, SEQ ID NO:2
[1]
  binding to IKKβ: interact directly
[2]
  interaction between IKKβ and IKKγ: increases the interaction between IKKβ and IKKγ
